Test: soluble fraction after stress (log2 fold change); higher = more stays soluble; pooled small domains, quantitative proteomics
Settings: stress: 50 degC
How it was run: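 Pooled custom libraries of small protein domains were each held under stress at 50°C. The read-out, high-throughput quantitative proteomics, tracked how much of each protein stayed soluble. This is reported as a base-two log fold change used to indicate aggregation propensity. Higher values mean more protein remains in solution.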
For “HMDEEGDALDREYEDQIRLGDEAFDAEDWTSAQRAYTAALELRPDERYPKNRLRRLASLQEDV”, the “soluble fraction (log2)” value was 0.0779. In the case of “HMESLNDRIKLVFKDSGLTQMDISKRLNIAQSSVSGIISGKANPSKRTLADIADRFDVNLEWLRDGTGPMK”, the “soluble fraction (log2)” value is reported as 0.337. For “HMTVIARQIPPLVPRMLDGLEAFIKLDVPFEEKERLARVQMLRSSLDRDNLDTAEIFRAVLEAYNIELQY”, the “soluble fraction (log2)” value was 0.0196. With “HMGPSLIRIASNPVAEVFIDGTRVGTTPFEMPADGTLKTVRLTAKDHDDLVVPLRSMKSMEIMLTLRRI” the “soluble fraction (log2)” value was -0.589. For “HMPVASNRDVNLDIGERVFVQEWAPNRTARVQYRGSPWEARLAPGAPAAAGEHRVSAVEGNWLVLEPA”, the “soluble fraction (log2)” value was -0.0102. In the case of “HMDPPYKDKNLHELLLKINNLNILKKDSVIILHRHKKQKEIFPSNFKIIEQKQYGISKIIFLTVL”, the “soluble fraction (log2)” value is reported as 0.00254. With “HMQDFEQNLFDGKSIYDRMLSKFSLHNVDVKQLVAHFKRKDTEQFFADIGRGLITSAQMLGFLQT” the “soluble fraction (log2)” value was -0.289. For “HMSYTPGQWVEASMPNATFFRIVPSGNATADKMLAVATPMKVISTSGTYVKVELDSGDVGFVPEIMV”, the “soluble fraction (log2)” value was -0.46. For “HMDVFTAKTASHIQELREKLGQQAVFGRSDVQNALGLKATRSSALLREMAEHGIIEPVTGYGKGRYHFRS”, the “soluble fraction (log2)” value was 0.225. In the case of “HMDEAAGVLTQLRAFIAASNLSPGLRLPPERELAEQLGVTRAELRKALAVLEAEGLLWRQVGKGTFYGARP”, the “soluble fraction (log2)” value is reported as -0.481. In the case of “HMVARPVLQIGSTGADVTAIQARLGVSQTGYFGVLTAAAVTNFQRSNGIAASGKVGATTWAKLMQSA”, the “soluble fraction (log2)” value is reported as -1.14. In the case of “HMTEDIAVRILEFLEDNNGFYALNDKTPSEKIHDLFGVSKKKFKIALGGLYKQRLITVSDAGVTLVK”, the “soluble fraction (log2)” value is reported as -1.29. In the case of “HMLIRKGVVSFFNDAKGYGFIKDLVTQESAFVHVNSLSETIKEHDKVTFEVEMGHKGANAVNVKLVK”, the “soluble fraction (log2)” value is reported as -1.03. In the case of “HMSMFTPAQVAQTLTVPPSTLRRWAKRFAPFLSPQSGKKRTYTVADLDTFQRIKELSAQGYTFAQIDQAL”, the “soluble fraction (log2)” value is reported as -0.738. For “HMKKIFIDAPLDTMITIPKDTTHHLLTVFRHKMEKPVLVGGSDGRTGVYQIQDVVDGEASAKLVGDIQ”, the “soluble fraction (log2)” value was 0.514. For “HMHTGLAELTDRERDVLRLIATGMTNAAIGSALAYSPSTIRADTVSIYRKLEVRGRAEAAAVAVAAGLTQP”, the “soluble fraction (log2)” value was -1.26. With “HMPEIFYRKIHRTDHDQIALDAEMIRLLIAIDEKKSLSQIAAEVQMEPMALKKNLGKLIQLGLVEPIK” the “soluble fraction (log2)” value was 0.137. With “HMAAINTYQVRKIYAIAGALGMKSRDGDDALHDLVFGMTGKQHISGLTSAEAYDVIAELEKKQ” the “soluble fraction (log2)” value was -1.66. For “HMNPYLWQRVRLLFSNVGVINNSATVDLVFSAPKGVLTEDLANNFSAALVKKGKEELGLDDIKITISVIPN”, the “soluble fraction (log2)” value was -2.94. In the case of “HMSERVVVPDLTGKDLVAAQSELREISLAGREEGPGDKVRRQFPVAGVKVPKDTVVILYTED”, the “soluble fraction (log2)” value is reported as 0.125. With “HMAAVPQPQRSETIVYIGGRKFYVHTVQAGETLYSIARLYGVSEQTLVANNPTMADVVKADQNVRIPVPA” the “soluble fraction (log2)” value was -0.272. With “HMGALSLDMLFDRFDALQEQSMGDKTEGGQELRGMIRTFIEQEKLDIRVTRTTTNAALLEMIEKEMQG” the “soluble fraction (log2)” value was -0.451. With “HMLQQNRAVEAEQLARKGLSYAQSNIQQAALWRLVAEATEQQGKVDAALNAKNKAMQLEMAG” the “soluble fraction (log2)” value was 0.173. With “HMEDKKQVLYELITDKSYRPLRFKELAVLLMVPKALRGELKQTLDELIKEGKITVDSSSRYRAA” the “soluble fraction (log2)” value was 0.133. For “HMPSGLFEPIKKSELSIESIDLLKDQIRAFKQADIRITFGFLLDLITKGENPAYVNASKLFEQAWER”, the “soluble fraction (log2)” value was 0.0685. With “HMATAPQIRAIYALGSKLGINQNSREDNLHQLVYSITGKESIKGLTNYEAARVQSELANMERK” the “soluble fraction (log2)” value was 0.22. In the case of “HMDTNTIIGLRIKALRTEKKYTLKYLSENSGLSIGFLSQLERGMTSVAIDSLDKISKVLDVELSSFFN”, the “soluble fraction (log2)” value is reported as -2.93. In the case of “HMLYKNIAKKLRFRINSDEFAIGDVLPTERQLMEEYQASRVSIRKAIDELVAIDLIEKKQGSGTYIKQKEV”, the “soluble fraction (log2)” value is reported as -0.919. For “HMENQMIIYIDENDENKRLDSYLSEITPDYSRSKIQNFIKNGNVTVNDSNKKPSYLLKENDKISFELPQQ”, the “soluble fraction (log2)” value was 0.00635. With “HMNQTTYTVLYSGMDPADTGKVLTALNEMGVDARTQGEDTVLVPADRADEIRLELAAQGYPTS” the “soluble fraction (log2)” value was 0.0864. In the case of “HMTEKEEERTEDLNYYRLNLISMLKSSYPEYLDDEEFISNRSQEAAEAFEDAVRSGSNYLDASAESNRTLY”, the “soluble fraction (log2)” value is reported as -0.362. For “HMREWPLWEIFIRGQHGLNHRHVGSLHAPDAAMAIGNARDVYTRRNEGVSIWAVRSADVVASVPSE”, the “soluble fraction (log2)” value was -2.33. In the case of “HMSDRFVRIVMNDGTVKLGQMISEDADFIRLKTNNLGELNIPKYLVLDMMDLTRSEYVRLSISNAG”, the “soluble fraction (log2)” value is reported as 0.169. For “HMKDRNISSSVLEILSKDPDHTYNYKQIAALLGVKDAFIRKRIVTLLAQLAKDGHLDEISRGKYQIK”, the “soluble fraction (log2)” value was -1.02. In the case of “HMTPYEVLVYESLKQKILSGGYAAGEKIPEQSVSEELGVSRSPLRSAIRRLASEGLIEYYPYRGAFVKA”, the “soluble fraction (log2)” value is reported as -0.347. In the case of “HMELMKPPGYWQSLENAIYESKKVIKEHGFDTLPSSNKLRELDYHGLSRAISVHHSGFPNFREIMNQELGI”, the “soluble fraction (log2)” value is reported as 0.172. For “HMDDIVFPNPTKNQINVSIDGLKNIYNLSGKLLISTNDKIIDVSILKAGVYFINTNEQFYKFVK”, the “soluble fraction (log2)” value was -1.3. For “HMETTVSYSGVVTASVLRIRKGPSVSSSVAGTLKKGTGVSIIFEDNGWGKLADGSGWVSLTYIKKNSTP”, the “soluble fraction (log2)” value was -0.302.
